Results reported in patent US20060068465.

Target: GST-Ub52 fusion protein [GST: P08515]
Sequence (P08515 whole entry, looked up, the tested form may be a part): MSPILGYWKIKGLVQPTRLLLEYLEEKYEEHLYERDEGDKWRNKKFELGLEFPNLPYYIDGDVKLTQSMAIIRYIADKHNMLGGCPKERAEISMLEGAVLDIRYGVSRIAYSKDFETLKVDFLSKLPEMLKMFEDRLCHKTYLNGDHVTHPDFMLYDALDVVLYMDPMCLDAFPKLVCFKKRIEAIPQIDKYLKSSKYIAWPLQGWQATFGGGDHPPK

Row | Protein | USP activity: cleavage of GST-Ub52 on co-expression in E. coli, SDS-PAGE with Coomassie staining
1 | synaptic USP (synUSP), full length (protein) MAPRLQLEKAAWRWAETVRPEEVSQEHIETAYRIWLEPCIRGVCRRNCRGNPNCLVGIGEHIWLGEIDENSFHNIDDPNCERRKKNSFVGLTNLGASCYVNTFLQVWFLNLELRQALYLCPSTCSDYTKGDGIRGGKDYEPQTICEHLQYLFALLQNSNRRYIDPSGFVKALGLDTGQQQDAQESSKLFMSLLEDTLSKQKNPDVRNVVQQQFCGEYAYVTVCSQCGRESKLVSKFYELELNIQGHKQLTDCISEFLKEERLEGDNRYFCENCQSKQNATRKIRLLSLPCTLNLQLMRFVFDRQTGHKKKLNAYIGFSESLDMEPYVEHKGGSFVYELSAVLIHRGVSAYSGHYIAHVKDPQSGDWYKFNDEDIEKMEGKKLQLGIEEDLTEPSKSQTRKPKCGKGTHCSRNAYMLVYRLQTQEKNHTMVQVPAFLQELVDRDNSKFEEWCVEMAEMRRQSVDKGRAKHEEVKELYQRLPAGAEPYEFVSLEWLQKWLDESTPTKPIDNNACLCSHDKLHPDKISIMKRISEYAADIFYSRYGGGPRLTVKALCKDCVVERCRILRLKNQLNEDYKTVNNLLKATMKGSDGFWVGKSSLRSWRQLALEQLDEQDGEAEQSNGKINGSPFSKDESKEEKKEEEEELNFNEDILCPHGELSISENERRLVSQEAWSKLQQYFPKAPEFPSYKECCSQCKILEREGEENEALHKMIAKEQKTSLPNLFQDKNRPCLSNWPEDTDALYIVSHFFLDEWRKFVRKPARSTPVSSVGNAALLCPHGGLMFTFPSLTKEDSKLIALIWPSEWQMIQKLFVVDKVIKITRIEVGDVNPSQTQYISEPNLCPDCREGLLCQQQKDLREYTQATIYVHKVVDNKKVMKDSAPELNVSSSETEEDKEEAKPDGEKDPDFNQSNGGTKRQKTSQQGYVAYQKQVIRRSTRHRKVRGEKALLVSANQTLKELKIQIMHAFSVAPFDQNLSIDGKILNDDCATLGTLGVIPESVILLKADEPIADYAAMDDVMQVCMPEEGFKGTGLLGH | the amount of the GST-Ub52 protein of 45 kDa decreased, and the proteolysis product of 30 kDa markedly increased along with it
2 | yeast UBP2 (protein) MPNEDNELQKAIENHHNQLLNQDKENADRNGSVIEDLPLYGTSINQQSTPGDVDDGKHLLYPDIATNLPLKTSDRLLDDILCDTIFLNSTDPKVMQKGLQSRGILKESMLSYSTFRSSIRPNCLGSLTDQVVFQTKSEYDSISCPKYNKIHVFQAVIFNPSLAEQQISTFDDIVKIPIYHLKVSVKVRQELERLKKHVGVTQFHSLDHLHEYDRVDLSTFDSSDPNLLDYGIYVSDDTNKLILIEIFKPEFNSPEEHESFTADAIKKRYNAMCVKNESLDKSETPSQVDCFYTLFKIFKGPLTRKSKAEPTKTIDSGNLALNTHLNPEWLTSKYGFQASSEIDEETNEIFTEYVPPDMVDYVNDLETRKIRESFVRKCLQLIFWGQLSTSLLAPNSPLKNTKSVKGMSSLQTSFSTLPWFHLLGESRARILLNSNEQTHSPLDAEPHFINLSVSHYYTDRDIIRNYESLSSLDPENIGLYFDALTYIANRKGAYQLIAYCGKQDIIGQEALENALLMFKINPKECNISELNEATLLSIYKYETSNKSQVTSNHLTNLKNALRLLAKYTKSDKLKFYVDHEPYRALSQAYDTLSIDESVDEDIIKTAYSVKINDSPGLKLDCDRALYTIAISKRSLDLFNFLTEECPQFSNYYGPEKLDYQEALKLLQVNENASDETILKIFKQKWFDENVYEPDQFLILRAALTKISIERNSTLITNFLLTGTIDPNSLPPENWPTGINNIGNTCYLNSLLQYYFSIAPLRRYVLEYQKTVENFNDHLSNSGHIRRIGGREISRGEVERSIQFIYQLRNLFYAMVHTRERCVTPSKELAYLAFAPSNVEVEFEVEGNKVVDQTGVLSDSKKETTDDAFTTKIKDTSLIDLEMEDGLNGDVGTDANRKKNESNDAEVSENEDTTGLTSPTRVAKISSDQLENALEMGRQQDVTECIGNVLFQIESGSEPIRYDEDNEQYDLVKQLFYGTTKQSIVPLSATNKVRTKVERFLSLLINIGDHPKDIYDAFDSYFKDEYLTMEEYGDVIRTVAVTTFPTILQVQIQRVYYDRERLMPFKSIEPLPFKEVIYMDRYADTENPLLLAKKKETEEMKQKLKVMKNRQRELLSRDDSGLTRKDAFLESIKLLESDTIKKTPLKIEAANDVIKTLRNNVQNIDNELMKLYNDINSLEEKISHQFDDFKEYGYSLFSVFIHRGEASYGHYWIYIKDRNRNGIWRKYNDETISEVQEEEVFNFNEGNTATPYFLVYVKQGQEGDIEPLKRILK | The GST-Ub52 protein was degraded to a band of 30 kDa by the co-expression of yeast USP2
3 | synUSP in which Cys98 was replaced with Ala (protein) MAPRLQLEKAAWRWAETVRPEEVSQEHIETAYRIWLEPCIRGVCRRNCRGNPNCLVGIGEHIWLGEIDENSFHNIDDPNCERRKKNSFVGLTNLGASAYVNTFLQVWFLNLELRQALYLCPSTCSDYTKGDGIRGGKDYEPQTICEHLQYLFALLQNSNRRYIDPSGFVKALGLDTGQQQDAQESSKLFMSLLEDTLSKQKNPDVRNVVQQQFCGEYAYVTVCSQCGRESKLVSKFYELELNIQGHKQLTDCISEFLKEERLEGDNRYFCENCQSKQNATRKIRLLSLPCTLNLQLMRFVFDRQTGHKKKLNAYIGFSESLDMEPYVEHKGGSFVYELSAVLIHRGVSAYSGHYIAHVKDPQSGDWYKFNDEDIEKMEGKKLQLGIEEDLTEPSKSQTRKPKCGKGTHCSRNAYMLVYRLQTQEKNHTMVQVPAFLQELVDRDNSKFEEWCVEMAEMRRQSVDKGRAKHEEVKELYQRLPAGAEPYEFVSLEWLQKWLDESTPTKPIDNNACLCSHDKLHPDKISIMKRISEYAADIFYSRYGGGPRLTVKALCKDCVVERCRILRLKNQLNEDYKTVNNLLKATMKGSDGFWVGKSSLRSWRQLALEQLDEQDGEAEQSNGKINGSPFSKDESKEEKKEEEEELNFNEDILCPHGELSISENERRLVSQEAWSKLQQYFPKAPEFPSYKECCSQCKILEREGEENEALHKMIAKEQKTSLPNLFQDKNRPCLSNWPEDTDALYIVSHFFLDEWRKFVRKPARSTPVSSVGNAALLCPHGGLMFTFPSLTKEDSKLIALIWPSEWQMIQKLFVVDKVIKITRIEVGDVNPSQTQYISEPNLCPDCREGLLCQQQKDLREYTQATIYVHKVVDNKKVMKDSAPELNVSSSETEEDKEEAKPDGEKDPDFNQSNGGTKRQKTSQQGYVAYQKQVIRRSTRHRKVRGEKALLVSANQTLKELKIQIMHAFSVAPFDQNLSIDGKILNDDCATLGTLGVIPESVILLKADEPIADYAAMDDVMQVCMPEEGFKGTGLLGH | The activity of synUSP disappeared by either replacing Cys98 with Ala
